The record followed here is patent US20210380669A1 (SCHOLAR ROCK, published 2021).

Positions count from the first letter of the chain named.

The target of experiment [1] is T1, recombinant, soluble human RGMc fused to an Fc (human, UniProt Q6ZVN8 36-400, limits assumed).
T1 sequence: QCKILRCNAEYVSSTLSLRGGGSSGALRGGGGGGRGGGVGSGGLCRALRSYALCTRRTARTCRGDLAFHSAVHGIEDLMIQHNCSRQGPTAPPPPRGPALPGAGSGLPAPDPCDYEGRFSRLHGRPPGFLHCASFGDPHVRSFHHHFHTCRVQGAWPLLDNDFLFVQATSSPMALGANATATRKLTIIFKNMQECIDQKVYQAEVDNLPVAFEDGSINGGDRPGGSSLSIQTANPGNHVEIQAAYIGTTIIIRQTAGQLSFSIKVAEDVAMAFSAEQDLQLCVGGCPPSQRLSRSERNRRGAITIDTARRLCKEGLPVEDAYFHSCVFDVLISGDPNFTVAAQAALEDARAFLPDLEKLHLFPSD
The experiment can be described thus: cell-based or functional assay.

For the next experiment, the target named is T2, histidine tagged hRGMc (human, UniProt Q6ZVN8 36-400).
T2 construct: also called human RGMc-his; not shown: histidine tag
T2 sequence: T1 sequence
Nature of the experiment: MSD-SET, full-length antibody against human RGMc-his. Here is the method: The titration was then added to a pre-coated plate with a capture antibody (pre-labeled with an NHS-sulfotag) that depletes any free antigen from solution. After a 150 second incubation, the plate was washed 3 times and an SA-sulfotag reagent was added and incubated for 3 min. After additional washes the plate was read on a MesoQuickPlex SQ120.
A similar MSD-SET assay was performed with the full-length antibodies against the human RGMc-his antigen to determine binding affinity (KD)).

Experiment [2] concerns the target T1, recombinant, soluble human RGMc fused …. Nature of the experiment: cell-based or functional assay. The source holds these as a separate data set.
In another experiment the target is T3, histidine tagged hRGMa (human, UniProt Q96B86 46-425, limits assumed).
T3 construct: also called RGMa-his; not shown: histidine tag
T3 sequence: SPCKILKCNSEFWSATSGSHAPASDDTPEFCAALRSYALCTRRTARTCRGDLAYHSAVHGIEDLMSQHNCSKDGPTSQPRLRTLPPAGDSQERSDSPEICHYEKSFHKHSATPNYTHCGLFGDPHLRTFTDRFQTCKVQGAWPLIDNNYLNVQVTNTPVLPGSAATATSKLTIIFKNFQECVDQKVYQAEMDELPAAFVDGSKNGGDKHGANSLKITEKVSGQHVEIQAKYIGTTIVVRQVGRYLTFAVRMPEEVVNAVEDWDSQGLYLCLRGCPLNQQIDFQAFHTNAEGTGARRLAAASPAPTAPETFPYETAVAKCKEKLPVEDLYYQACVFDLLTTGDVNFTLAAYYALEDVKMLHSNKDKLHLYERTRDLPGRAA
The experiment can be described thus: Octet (BLI), antibody on AHC biosensor, his-tagged hRGMa in solution (concentrations from paragraph 460). Here is the method: (§1) Antibodies that are selective for RGMc were generated using known techniques as describe herein. RGMc specificity over RGMa and RGMb was verified using an in vitro binding assay (i.e., Octet®). […] After loading, a baseline reading was obtained by placing the tips into 1× Kinetics Buffer before calculating the on rate, or association, of the antibodies by presenting them to histidine tagged hRGMc, hRGMa, or hRGMb, at varying concentrations (900 nM, 300 nM, 100 nM, and 33 nM). After reaching binding saturation, a dissociation step was performed to calculate the off rate by moving the tips back into 1× Kinetics Buffer. The rate of binding and dissociation can then be used to calculate the KD, or binding affinity of each antibody to the main target (RGMc) while ensuring no cross binding to RGM family members (RGMa and RGMb).
On the technique in general: BLI is a label-free optical method that tracks binding on a fibre tip over time.

In a further experiment the target is T4, histidine tagged hRGMb (human, UniProt Q6NW40 46-413).
T4 construct: not shown: histidine tag
T4 sequence: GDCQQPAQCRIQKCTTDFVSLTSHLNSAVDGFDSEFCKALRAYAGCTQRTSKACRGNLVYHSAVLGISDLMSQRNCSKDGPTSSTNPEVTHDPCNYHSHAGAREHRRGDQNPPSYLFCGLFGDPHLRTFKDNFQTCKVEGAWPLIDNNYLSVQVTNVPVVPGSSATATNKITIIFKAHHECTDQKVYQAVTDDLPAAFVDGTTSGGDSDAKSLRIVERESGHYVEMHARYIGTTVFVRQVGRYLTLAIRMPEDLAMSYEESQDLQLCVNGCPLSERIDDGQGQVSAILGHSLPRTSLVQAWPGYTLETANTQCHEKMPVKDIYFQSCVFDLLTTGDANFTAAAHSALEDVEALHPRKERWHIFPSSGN
Nature of the experiment: Octet (BLI), antibody on AHC biosensor, his-tagged hRGMb in solution (concentrations from paragraph 460). The protocol: as §1

B1: SR-RC-AB9 (antibody, V domains shown)
VH: QVQLVQSGAEVKKPGSSVKVSCKASGGTFSSYSIQWVRQAPGQGLEWMGGIIPIFGVASYAQKFQGRVTITADESTSTAYMELSSLRSEDTAVYYCARGAIAATYGLGMDVWGQGTTVTVSS
VL: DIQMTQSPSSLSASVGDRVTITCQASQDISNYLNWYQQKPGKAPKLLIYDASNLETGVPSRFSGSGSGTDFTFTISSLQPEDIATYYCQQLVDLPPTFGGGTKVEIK
notes: Tested as a full-length antibody
With B1, the “EC50 (ug/mL), BMP activity assay” value in experiment [1] amounted to 3.45 µg/mL. Binding in the experiment with histidine tagged hRGMc was characterised by a dissociation constant (Kd) of 0.024 nM.

B2: SR-RC-AB7 (antibody, V domains shown)
VH: B1 VH with K19R, S33A, A102V
VL: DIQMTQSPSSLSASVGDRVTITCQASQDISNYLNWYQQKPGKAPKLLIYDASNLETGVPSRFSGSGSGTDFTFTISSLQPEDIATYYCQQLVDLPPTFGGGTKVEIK
notes: as for B1
For B2, in experiment [1], the “EC50 (ug/mL), BMP activity assay” value came to 3.87 µg/mL. This molecule also had a Kd with histidine tagged hRGMc of 0.021 nM.

B3: SR-RC-AB8 (antibody, human IgG4, V domains shown)
VH: B1 VH with S30R, Q35S, S59N, I101Y, A102E
VL: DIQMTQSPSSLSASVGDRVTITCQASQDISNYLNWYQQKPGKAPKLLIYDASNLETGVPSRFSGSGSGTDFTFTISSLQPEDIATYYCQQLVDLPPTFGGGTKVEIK
For the molecule B3, in experiment [1], the “EC50 (ug/mL), BMP activity assay” value came to 3.63 µg/mL. Besides, in the experiment with histidine tagged hRGMc, the affinity, expressed as Kd, was 0.039 nM.

B4: SR-RC-AB3 (antibody, V domains shown)
VH: B1 VH with S33A, Q35S, V57T, S59N
VL: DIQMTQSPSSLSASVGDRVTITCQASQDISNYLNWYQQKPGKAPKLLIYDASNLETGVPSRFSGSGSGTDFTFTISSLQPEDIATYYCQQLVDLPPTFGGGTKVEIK
notes: Tested as a full-length antibody, captured by anti-human IgG Fc sensors; also called parental antibody
On to B4, for which the “EC50 in the BRE reporter assay (BMP6 reporter activity, luciferase RLU)” value in experiment [2] is 6.83 nM. Besides, the “EC50 (ug/mL), BMP activity assay” value in experiment [1] amounted to 4.83 µg/mL. Moreover, the Kd in the experiment with histidine tagged hRGMc was 4.3 nM. Further, the binding result in the experiment with histidine tagged hRGMa and in the experiment with histidine tagged hRGMb was “no binding (tested: 900 nM)” throughout.

Broadly, the Kd is the concentration at which binding is half-saturated.
